# According to the RNAGym collection of RNA variant scans (doi:10.1073/pnas.2313332121):
# B1: TPR t1 (parent)
# chain: GACCAAUCUGCCCUCAGAGCUCGAGAACAUCUUCGGAUGCAGAGGAGGCAGGCUUCGGUGGCGCGAUAGCGCCAACGUCCUCAACCUCCAAUGCAUCCCACCACAUGAUGAUGCCUGAAGAGCCUUGGUUUUUUG
# Variants of: B1
# Assay: polymerase ribozyme fitness, log enrichment relative to wild type (log ratio); higher = more active; in vitro selection for triplet polymerase activity
# Method in brief: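 Genotype fitness is the logarithm of its enrichment divided by wild-type enrichment, using inverse-variance-weighted averages of replicates. That logarithm is base 2. Enrichment was measured by Illumina sequencing of input and output libraries from one triplicate in vitro selection round, with frozen incubation at −7 °C, on PCR-built, transcribed mutant libraries of each subunit of a heterodimeric triplet polymerase ribozyme, retaining genotypes with ≥10 input reads and ≥1 read per output.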
row,Variant,polymerase ribozyme fitness (log ratio)
1,C4U U130A,-1.49
2,A5C U7C A29G G71A C89U G93C,-4.81
3,A5C C89A A111C,-3.6
4,C4U A18U U55G C86U,-2.79
5,A5C A74C,-1.06
6,A5G C82U C97U C124G U126A,-0.153
7,A5G C62U C88G U112C C123A C124A U130A,0.112
8,C4G C8A C20G A111C C123G,-4.96
9,A5U C11A G58U C70U C101U,-2.57
10,A5C C11U G122A,0.875
11,C4G C80U,-1.83
12,C4G A50U G61U,-2.2
13,C4G A16C C82U G120C C124A,-3.01
14,C4U C70G,-2.23
15,A5G G19A C72U U87A G117U,-4.71
16,C4A C13U C40A G52A C104U,-2.23
17,A5G C12A U38A G60A A121C G135U,0.199
18,C4U C56A C101A G117C,-5.92
19,C4A G61C,-3.08
20,A5C U78C G127C U129C,-2.19
21,A5U C15A,-2.36
22,C4G C8G C53A U112G G120A,-2.51
23,A5C G48C U78A C115A,-2.4
24,A5C C89G C114G U126C U131A,-5.03

row,Variant,polymerase ribozyme fitness (log ratio)
1,C4U C70A C85G C86U,-3.72
2,A5G C13U C98U G128U,-3.14
3,C4U C8G C13A U21G G77U C82A A84U A121C,-0.469
4,A5C U78C C101U,-1.23
5,A5C C104U,-1.05
6,C4U C85U,-1.63
7,C4A G69U A74G A90U U106A G117C,-4.9
8,C4G G10C C115U,-3.25
9,A5G G44A G45U G63U C79U C124A,-1.7
10,C4A G120U,-1.6
11,C4A G93A G120C U126G,-1.92
12,A5G A37G C53U A105G U112G U125G G135U,-5.89
13,C4U C49U C56G C114A G127A,-3.57
14,C4U A41U G44A G45A C53U G63C,-6.08
15,C4U G60U C114U,-3.78
16,A5C G71A U132A,-1.18
17,A5C A74G C85A C104U,-0.8
18,A5G U32C C40U C99U A100U,-5.33
19,A5C C8U A16U G45U G63A,-2.38
20,A5U A18C,-1.31
21,C4A C80A C101U A121G,-1.22
22,A5G G10A C15A G23C U32G C64A G128C U130C,-6.17
23,A5U C8G C20U C40A,-3.31
24,A5G G51U A83U A121C,-3.06

row,Variant,polymerase ribozyme fitness (log ratio)
1,A5G C56A A74G C97U C123A,0.643
2,C4U C53U U125A,-1.45
3,A5G G44U G52A,-2
4,A5G C13A C53U U59G G69C,-4.36
5,A5C C82G U92G U130G,-4.87
6,C4U G48U G52U A90U C124G,-1.92
7,C4U A16G C49U G69U G113U,-2.65
8,A5U C8A,0.0555
9,A5U A27U,-3.65
10,C4A G60A,-0.949
11,C4G A37U,-1.82
12,C4U U7C A43U C70U C85A U92G G120C,-5.06
13,A5C C8G A26U,-1.68
14,C4G U54A G60C,-1.88
15,A5G C88A A91C C114G A121C,-0.389
16,C4G C15U U96A G127C,-2.26
17,C4G C11G G39A,-1.72
18,C4A G63A,-1.65
19,A5G C62A G117C,-4.86
20,A5C U7G U54A G110C,-4.81
21,C4U A68U A100U G117U,-5.92
22,A5C C123G,1.35
23,C4G U106C C115G,-4.76
24,A5C A26G C88U U116C U129A,-6.24

row,Variant,polymerase ribozyme fitness (log ratio)
1,C4G G113U,-3.96
2,C4U C49U A66G G69C U78A,-5.15
3,A5G G48U C73A C97A,-5.81
4,C4U G42U U59A,-2.49
5,C4U C72A,-0.193
6,A5U A6C G47A,-1.7
7,C4U A6G G39A C72A C85A A90G C114U,-3.29
8,C4A G51U C70A A84C G113U C114U G128A,-6.15
9,A5C G52U,-2.8
10,A5C G52A,-0.884
11,A5U C11G A16U G60U U87A A103C,-5.47
12,C4A C72G G77A G120A,-1.74
13,C4U G52A C62U C82G G120C,-0.476
14,C4U A16U G42U U59G A84U,-4.24
15,C4G A50C C115U,-4.34
16,A5U C11A G42C G63A C88U U106A A121C U125A,-5.18
17,A5G U9G A111U U126A,-3.21
18,A5C C11A A50G C53A C99A C102G C104A C115U,-7.15
19,A5G C64U,0.17
20,A5U A6G A46C G61A C115G,-2.35
21,A5C G47A U59A A100C U106C,-4.2
22,A5C C34A G42C C88U,-5.7
23,A5C G58A G60C,-0.634
24,C4U A43G G47U C53U G61U,-3.38

row,Variant,polymerase ribozyme fitness (log ratio)
1,A5G G44C C82A,-2.23
2,A5C C11U C40U G48U G60U U87A A111C,-4.98
3,C4U U7A C11A,-0.665
4,A5C U9C C28G C56U G120A,-1.71
5,A5G A18U C28U,-4.63
6,A5C A26U C62U,-4.3
7,A5C C88G G127A,-2.6
8,C4U C56U,-0.85
9,A5C A18C,-2.78
10,C4A C56G C102U,-4
11,C4U C13U G42A G69U G77A A90U C104U,-0.867
12,A5G C49A C53U C85A G135U,-3.84
13,A5G C40U G69U A100G,-1.21
14,C4G A37G C53U A111C,-1.68
15,C4U G17C G48A G69C G120C,-4.5
16,C4U C8G U9C C11G C62G,-0.314
17,A5G C40A G120U,-0.337
18,C4A G36U C70U,-3.69
19,C4U G63U,-1.66
20,C4U U81A,-1.77
21,A5C C40U U67C C104G C123G G128A,-6.57
22,A5C C22U C89A A121G,-4.41
23,C4U C72A C85U C102U A121G U133A,0.405
24,C4G U7G C8G G71A C98G A103C C114A G122U,-5.04

row,Variant,polymerase ribozyme fitness (log ratio)
1,C4U G36U,-1.82
2,C4A C34A G71U,-4.3
3,A5C G71U,-0.21
4,C4U C11G U54A G63C C101A U112C,0.841
5,C4U U14A C73U,-4.13
6,A5G C40A C72U G110U,-3.65
7,C4G U32A G71U A121C U129A,-4.53
8,A5G U112C C124G G128A,-0.522
9,C4U U7G C11G C13A C56U U87A U112A,1.5
10,A5C A37C C70U G110U,-4.1
11,C4G C15U,-2.66
12,A5G G45A,-0.52
13,A5G A91C,-1.57
14,A5G C56G,-0.49
15,A5C C11U A43U U59C G60A,-4.12
16,C4U A43U,-2.23
17,A5G G117C,-3.71
18,C4U U92A,-4.01
19,C4G U32C G45U,-3.28
20,A5U C11G C64U U78C U126C,-0.928
21,A5U A83C,-0.98
22,A5C U7C G63U C94G G113C A118C,-6.82
23,C4G G45A,-2.31
24,A5C C12A C73U,-0.891

row,Variant,polymerase ribozyme fitness (log ratio)
1,A5G C15G U32A G63U U112C A119U,-5.37
2,A5G C13A G48C C73A U112A G120C,-0.914
3,C4A A46U,-2.61
4,C4A A46C,-3.07
5,A5G A27U A111G,-3.24
6,A5U C12U U78C C80U,-1.23
7,C4U A90G,-0.325
8,A5U A6U C62G C104U,-1.25
9,A5G C13A A46U G63A U133A,-2.84
10,C4G G51U G120U,-4.56
11,A5C C70G,-2.95
12,A5U C12U U125A,-0.727
13,C4A G36A,-2.02
14,C4A C73A U81A,-3.04
15,A5C C11G G36U G44A C56A U112A,-1.22
16,C4G G71U,-1.92
17,C4U C49U C85U C89G,-2.63
18,C4U C8G G47C C123A,-0.0311
19,C4A C115U G120A U131A,-5.05
20,A5C C12G C49A A83C,-0.122
21,A5C C82A U126G,-0.956
22,C4U A46U A95C,-2.04
23,C4U G36U C73U G127A,-2.05
